Measured values as given in US9850293B2, “Targeting trastuzumab-resistant HER2+ breast cancer with a HER3-targeting nanoparticle” (priority 2014, dated 2017).

How the values were obtained:
[1] = test system: parental and resistant cell lines (JIMT-1, BT-474, SKBR3); assay: HerDox −/+ HER3 blocking peptide, cell survival; type: cell-based, human; conditions: equimolar HER3:HerPBK10, 48 hours
Experimental: (A)_-illustrates that resistance enhances HerDox toxicity. […] N=3. *, p<0.05 compared to parental. (B)_illustrates that resistance enhances HerDox toxicity. […] N=3. (C) illustrates contribution of HER3 to targeted toxicity. […] Treatments were compared to mock (saline)-treatment. […] N=3. *, p<0.05 compared to parental. […] N=3.
The contribution of HER3 to targeted toxicity was evaluated by assessing whether pre-adsorbing HerDox with a peptide comprising the ligand-binding domain of HER3 blocked cytotoxicity. […] In contrast, HerDox yielded dose-dependent cell death and eliminated up to 90% of the cells (FIG. 27-E).

[2] = Particle size (cryoEM, dynamic light scattering); type: physicochemical; conditions: round particles
Experimental: (A) depicts a graphic of HerDox formed by non-covalent, serum-stable self-assembly, showing HerPBK10 with functional domains delineated, and electrophilic binding with Dox-intercalated ds-oligo. (B) depicts a CryoEM image of HerDox particles. (C) is a HPLC chromatogram of HerDox showing elution profile of Dox absorbance. […] (D) illustrates the protection of ds-oligo from serum nuclease digestion by HerPBK10. The ds-oligo was incubated for 20 min in 100% mouse serum (Abcam, Cambridge, Mass., USA) before PAGE and EtBr staining to visualize the DNA. (E) illustrates that HerDox remains stable in blood. […] N=3. *, p<0.05, compared to respective retentates.
FIG. 33 illustrates the formation of certain corroles. […] Table summarizes salient features of the three corroles.
In some embodiments, the corrole comprises a metallic chemical element. In some of these embodiments, the metal is a transition metal. In some embodiments, the metal is Iron (Fe), Manganese (Mn), or Gallium (Ga). In other embodiments, the corrole is non-metallated. Metallated and non-metallated corroles bind in protein pockets with negligible dissociation. […] Corrole assembly with HerPBK10 yields 25-35 corroles/protein, resulting in 10-20 nm round particles (FIG. 33-B) that withstand high-speed ultrafiltration.

B1: HerDox: non-covalent complex of HerPBK10, double-stranded oligonucleotide and intercalated Dox (Unit A+Unit B+Unit C) (conjugate)
chain: SHLVKCAEKEKTFCVNGGECFMVKDLSNPSRYLCKCQPGFTGARCTENVPMKVQNQEKAEELYQKMRRAAMYEEGPPPSYESVVSAAPVAAALGSPFDAPLDPPFVPPRYLRPTGGRNSIRYSELAPLFDTTRVYLVDNKSTDVASLNYQNDHSNFLTTVIQNNDYSPGEASTQTINLDDRSHWGGDLKTILHTNMPNVNEFMFTNKFKARVMVSRLPTKDNQVELKYEWVEFTLPEGNYSETMTIDLMNNAIVEHYLKVGRQNGVLESDIGVKFDTRNFRLGFDPVTGLVMPGVYTNEAFHPDIILLPGCGVDFTHSRLSNLLGIRKRQPFQEGFRITYDDLEGGNIPALLDVDAYQASLKDDTEQGGGGAGGSNSSGSGAEENSNAAAAAMQPVEDMNDHAIRGDTFATRAEEKRAEAEAAAEAAAPAAQPEVEKPQKKPVIKPLTEDSKKRSYNLISNDSTFTQYRSWYLAYNYGDPQTGIRSWTLLCTPDVTCGSEQVYWSLPDMMQDPVTFRSTRQISNFPVVGAELLPVHSKSFYNDQAVYSQLIRQFTSLTHVFNRFPENQILARPPAPTITTVSENVPALTDHGTLPLRNSIGGVQRVTITDARRRTCPYVYKALGIVSPRVLSSRTFKKKKKKKKKK
modifications: left off: small tags and cut ends
With B1 the “cell death after pre-adsorbing with HER3 peptide” value [1] was “inhibited by the HER3 peptide” and the particle diameter [2] was 10-50 nm.
